Experimental data as given in US20230167165A1.

Biological target: monomeric human protein of therapeutic interest (antigen of Examples 1-7) (human)
Test: competition flow cytometry; control scFv-Fc supernatant preincubated 15 min with 10 nM labeled antigen, then yeast displaying parental scFv added

unrelated scFv-Fc (control) (Fc fusion)
Q2 (% of cells displaying the parental scFv that bind antigen in presence of the competing scFv-Fc): 69.9%
